# Patent US20250147051A1, “METHOD FOR DETECTING A TAU PROTEIN IN A SALIVA SAMPLE” (GTINVENT LIMITED, priority 2022, published 2025)
# “Also recorded” adds a separate entry of the source.
# Legend:
# core region tau = assay: S1D12 immunotherapy 6-week repeat-dose mouse study, plasma tau by CA4-S1G2 core-core Simoa assay; assay type: in vivo
# Protocol: A total of 12 wildtype, 12 Line 1 and 12 Line 66 female mice were used in this study—Line 1 and Line 66 are transgenic mouse models of tauopathy (Melis et al., 2015). Animals were 2 months old at the beginning of the study. Mice of each genotype were injected intraperitoneally (i.p.) with either vehicle or S1D12 mAb (30 mg/kg), once per week, for six consecutive weeks.
# Seven days post final dose, cardiac puncture blood sampling was performed. mice were anaesthetised using an overdose of sodium pentobarbital (i.p.) and blood was collected via cardiac puncture through a Plastipak syringe pre-rinsed with heparinised saline (10 U/mL) and transferred into a plastic vial containing lithium heparin anticoagulant. Blood samples were centrifuged to obtain plasma at 2,000×g for 5 min at 6° C.
# In order to monitor the ‘treatment effect’ of S1D12 mAb, plasma tau of vehicle control and antibody treated L66^+/+ mice were assessed via a core-core homebrew Simoa® assay to investigate changes in core tau pools in these mice.
# tau = assay: Western blot of mouse brain homogenates (WT, L66+/+, L1+/+); details: 20 μg brain homogenate protein, 5-month-old WT, L1+/+ mice
# Protocol: Protein equivalent to 20 μg from each brain extract was separated using 4-20% bis-tris gels and run in 1×MES buffer. […] A clear band is visible in the lanes containing L66^+/+ samples, but no other bands are detectable (WT or L1^+/+). […] Once again, a band having relative mobility of 65 kDa is visible in the L66 sample with no other reactive bands present.
# This band most likely corresponds to endogenous mouse tau which is of a similar size. In the L66^+/+ samples, a second band running at approximately 68 kDa is also detected. The presence of numerous other bands indicates proteolytic truncation of tau within brain homogenates.
# dGA = dGA (Homo sapiens, UniProt P10636); assay: Biacore X100 SPR binding kinetics of anti-tau scAbs (scAb captured via HuCk), analyte dGA; details: lead scAbs; for ka: Table 24; for dissociation rate constant (kd): Table 24, dissociation rate
# Protocol: (§1) Surface plasmon resonance (SPR) is widely regarded as the gold standard for real time measurement of protein-protein interactions such as antibody binding. All SPR experiments were carried out using a Biacore X100 machine and HBS EP+ running buffer (GE Healthcare). A ‘capture’ method was followed for affinity measurements, where an anti-human constant kappa chain (HuCk) antibody was conjugated to the surface of a CM5 sensor chip using an amine coupling kit and scAb molecules were immobilised via their HuCk domain. Amine coupling is a very common approach for immobilising the ligand to the chip surface. The chip surface has a dextran matrix derivatised with carboxyl groups, which after activation with N-hydroxysuccinimide (NHS) and 1-ethyl-3-(3-dimethylaminopropyl) carbodiimide (EDC), form reactive succinimide esters which allows the covalent capturing of the ligand via any available primary amine groups (e.g. Lysine) on the ligand (in this case anti-HuCk antibody). The capture antibody was diluted 1/100 in 10 mM Sodium acetate buffer pH 5.0 and passed over the activated chip surface for a period of at least 420 s. Final ligand immobilisation levels over 12,000 RU were deemed to be satisfactory.
# (§2) Following immobilisation, the level of each scAb to be captured was identified using the standard SPR equation with a theoretical RMax of 100 RU. Analyte MW refers to the molecular weight of hT40 or dGA/dGAE molecules, while ligand MW refers to the molecular weight of the scAbs tested. RLis the desired capture level and S refers to the stoichiometric ratio:
# (§3) The scAb to be tested was added only to flow cell 2 so that flow cell 1 could act as a control to subtract any interaction with the analyte and the chip surface. Both single and multi-cycle runs were utilised using wizards developed in the Biacore X100 control software which are both accepted methods of kinetic analysis (Karlsson, R., et al. Analyzing a kinetic titration series using affinity biosensors (2006) Analytical Biochemistry 349:136-47). The multi-cycle protocol was as follows-Three start-up cycles composed of an initial capture, to the desired level, of the scAb to be tested was performed followed by a 30 s injection of glycine buffer pH 2.0 after each cycle to regenerate the chip surface. The regeneration step removed any captured scAb whilst leaving the capture antibody intact and able to repeat the capture for the next cycle. Following three start-up cycles increasing concentrations (0.15625 nM-100 nM) of the target to be tested were added to the chip surface after the desired scAb capture. The target was added for a 120 s association period and 420 s dissociation period followed by another regeneration, 30 s injection of glycine buffer pH 2.0 in between each cycle.
# The single cycle kinetics protocol was similar and utilised the same level of scAb capture. Three start-up cycles were used followed by 5 increasing concentrations of the analyte (6.25 nM-100 nM) for an association period of 120 s followed by a dissociation period of 420 s for each concentration. In single cycle kinetics the regeneration step was performed only after the final analyte concentration was added. Binding responses were analysed in Biacore X100 evaluation software and data fitted to a 1:1 binding model to obtain kinetic and affinity characterisation.
# dGAE aggregates = biological target: T1, dGAE aggregates (Homo sapiens, UniProt P10636); assay: Sandwich ELISA LoD for SDS Triton X-100 treated dGAE aggregates; assay type: binding; details: label = detection scAb
# T1 construct: host or cells: aggregated in house: 100 μM dGAE with DTT, 700 rpm, 37 °C, 24 h
# Protocol: For aggregation, 1000 μL 100 μM dGAE+10 μL 10 mM DTT was added to a ‘LoBind’ microfuge tubes and agitated at 700 RPM/37° C. for 24 hours. Resulting sample centrifuged at 17,000×g/4° C. for 60 min and supernatant discarded to remove left over monomer. Pellet resuspended in half the original volume for future experiments and hereafter referred to as ‘aggregates’. 1 μl of aggregates was added to 1 ml of PBS and SDS was added to a final concentration of 1% (w/v). This was left to incubate on lab bench for 1 h with gentle agitation every 15 minutes. In order to neutralise the SDS effect on ELISA, Triton X-100 added to a final concentration of 3% (v/v) and mixed gently by pipetting to prevent any bubble formation. 200 μl added of this mix was to the first well of an ELISA plate coated with 1 μg/ml S1D12 mAb and blocked with 2% MPBS. Similarly aggregates treated with only SDS or Triton X-100, untreated aggregates, dGAE monomers treated with only SDS or SDS+Titon X-100 were also added to designated wells as controls. All samples were then double diluted across the plate in final volumes of 100 μl. The final column was left with no protein to act as a blank. This was allowed to stand at room temperature for 1 hour followed by the addition of detection scAb-S1G2 at 10 μg/ml. Anti-HuCk HRP labelled secondary antibody was added as described previously and ELISA data generated was represented using the graph below. In addition, limits of detection (LoD) of various core binding antibody pairing for SDS Triton X-100 treated dGAE aggregates were calculated using the above describe ELISA method and substituting capture mAbs and detection scAbs as shown in Table 30.
# tau protein = assay: Capture ELISA of transgenic mouse brain lysates; details: S1D12 mAb capture; label = detection scAb; WT, L1, L66+/- and L66+/+
# Protocol: Mouse brain lysates were prepared from wildtype, Line 1, Line 66+/+ and Line 66+/− (Melis et al., 2015, all surplus from Charles River, part of study R0144). All animals were female, 7-8 months old except Line 66+/+ which were 5 months old. […] The L1 cDNA construct (FIG. 23) contains human tau cDNA coding for amino acid residues 296-390 with a signal sequence and related sequences in a murine Thy-1 expression cassette. For brain lysate preparation, half brains were sectioned into four and the individual sections were homogenised in 400 μl of ice cold RIPA buffer (Cell signalling Technology) containing protease and phosphatase inhibitors. Total protein concentrations for individual samples were established by BCA-assay and each sample was subsequently diluted to 1 mg/ml for future experiments.
# For capture ELISA, 100 μL S1D12 capture mAb was used to coat a nunc 96 well Maxisorp plate at 1 μg/ml and incubated for 1 hour at 37° C. Plate was washed as previously and then blocked for 1 hour at 37° C. in 2% MPBS. Brain homogenate samples (50 ng total protein) from each mouse type were added to the first wells and double diluted across the plate in PBS. These samples were left to incubate at RT for 1 hour. Various detection scAbs encompassing epitopes of interest were then added to the plate at 1 μg/ml and incubated for 1 h at RT. Secondary antibody used was anti-HuCk HRP and the assays were developed as described previously. Using S1D12 mAb capture and two separate scAb detectors, S-1G2 (FIG. 24A) and C-B7 (FIG. 24B), it was possible to differentiate between L1 and L66 samples and the wild type.
# dGAE = dGAE (Homo sapiens, UniProt P10636); assay: Biacore X100 SPR binding kinetics of anti-tau scAbs (scAb captured via HuCk), analyte dGAE; details: lead scAbs
# Protocol: as §1, §2
# as §3, with “Following three start-up cycles increasing concentrations (0.15625 nM-100 nM) of the target to be tested were added to the chip surface after the desired scAb capture. The target was added for a 120 s association period and 420 s dissociation period followed by another regeneration, 30 s injection of glycine buffer pH 2.0 in between each cycle.” left out
# The single cycle kinetics protocol was similar and utilised the same level of scAb capture. […] Binding responses were analysed in Biacore X100 evaluation software and data fitted to a 1:1 binding model to obtain kinetic and affinity characterisation.
# T1 sequence (P10636 614-708): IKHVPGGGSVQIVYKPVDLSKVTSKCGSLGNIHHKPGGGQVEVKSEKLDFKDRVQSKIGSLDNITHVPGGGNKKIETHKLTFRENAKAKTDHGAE
# dGA, sequence (P10636 614-707): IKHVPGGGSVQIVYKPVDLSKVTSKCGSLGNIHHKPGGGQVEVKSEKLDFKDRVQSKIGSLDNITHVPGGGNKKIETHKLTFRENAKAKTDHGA
# dGAE, sequence (P10636 614-708): as the sequence (P10636 614-708) above
Molecule,"plasma tau, L66+/+ mice with S1D12 treatment (core region tau; 30 mg/kg i.p. once per week for six weeks, CA4-S1G2 Simoa)","increase of core region tau in plasma vs vehicle group, L1 (core region tau; CA4-S1G2 pairing, n=5 or 6)","increase of core region tau in plasma vs vehicle group, L66 (core region tau; CA4-S1G2 pairing, n=5 or 6)","increase of core region tau in plasma vs vehicle group, wild-type (core region tau; CA4-S1G2 pairing, n=5 or 6)",Western blot reactivity (tau),ka (dGA) [M⁻¹ s⁻¹],dissociation rate constant (kd) (dGA) [s⁻¹],"LoD, 423 mAb capture, +SDS Triton dGAE agg. (dGAE aggregates) [ng/mL]","LoD, S1D12 mAb capture, +SDS Triton dGAE agg. (dGAE aggregates)","LoD, direct immobilisation of dGAE aggregates, +SDS Triton dGAE agg. (dGAE aggregates) [ng/mL]",detection of tau in mouse brain homogenate (tau protein),ka (dGAE; Table 24) [M⁻¹ s⁻¹],"dissociation rate constant (koff) (dGAE; Table 24, dissociation rate) [s⁻¹]"
"S1D12: anti-tau binding molecule defined by its CDRs; scAb sequence SEQ ID NO: 32 (protein, S1D12 amino acid sequence) scFv: QVQLQESGPSLVKPSQTLSLTCTVSGFSLNNNAVGWVRQAPGKVPESLVGCSSDGTCYYNSALKSRLDITRDTSKNQISLSLSSVTTDDAAVYYCTRGHYSIYGYDYLGTIDYWGPGLLVTVSSEGKSSGASGESKVDDQAVLTQPSSVSGSLGQRVSITCSGSSSNVGGGNSVGWYQHLPGSGLKTIIYDTNSRPSGVPDRFSGSRSGNTATLTINSLQAEDEGDYYCVTGDSTTHDDLVGSGTRLTVLG",3.52 (0.20) ng/ml,more than 100 fold,more than a threefold increase,less than a two-fold increase,"A band is detected in each sample (WT, L66^+/+ and L1^+/+)",1.21e+06,0.000418,–,–,–,–,–,–
"S1G2: anti-tau binding molecule defined by its CDRs; scAb sequence SEQ ID NO: 81 (protein, S1G2 amino acid sequence) scFv: QVQLQESGPSLVKPSQTLSLTCTVSGFSLTSNSVGWVRQAPGKAPEWVAGIDTDGEEGYNPALNSRLSITRDTSKSQVSLSLSSVTSEDTAVYYCGRSYRADGLAYGYVQAIDYWGPGLLVTVSSEGKSSGASGESKVDDQAVVTQPSSVSGSLGQRVSITCSGSFIGISSVGWFQQLPGSGLRTIIVASDGRPSGVPDRFSMSKSGNTATLTISSLQAEDEADYFCGSSDRTPYTGVFGSGTRLTVLG",–,–,–,–,"A band is detected in each sample (WT, L66^+/+ and L1^+/+); also recorded: able to detect the pathologic 10-kDa tau fragment",783000,0.0003499,30,approximately 2 ng/ml,16,tau protein was detected in 50 μg of total brain protein in all four different sample types,–,–
"E1E8: anti-tau clone, SEQ ID NO: 250 (protein, E1E8 amino acid sequence) scFv: QVQLQESGPSLVKPSQTLSLTCTVSGFSLTDWGVAWVRQAPGKALEWLGTMRSGGTTDDNPALKSRLSITRDTSKSQVSLSLSSVTTEDMAMYYCARGYLSGVHYAWGRGLLVTVSSEGKSSGASGESKVDDQAVLTQPSSVSGSLGQSVSITCSGSSSNVGDGRYVSWFQQVPGSAPKLLIYDTTSRASGVPDRFSGSRSGNTATLIITSLQAEDEADYYCASIDSGNNLLFGSGTRLTVLG",–,–,–,–,–,–,–,–,–,–,–,153500,0.0014
